Laboratory results: the supplement of paper PMC10567573

B1: TRAF3IP2 (parent)
chain: KQGSMNFRFIPVLFPNAKKEHVPT

Variants of: B1
Experiment: protein stability index of a GFP-peptide fusion (GPS, HEK-293T) (PSI 1-6); higher = more stable
Details: c terminus: a fixed tail appended
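Further: lentivirally expressed fusions sorted by FACS into six bins by GFP to DsRed ratio, PSI derived from sequencing read proportions per bin multiplied by bin number.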

Protein stability index, by site and new letter:
K1: Q 1.88 | T 2.32 | A 2.02 | N 1.94
F14: T 2.76 | N 2.06 | D 2.77 | V 2.3 | W 2.46 | S 2.42 | A 1.88
A17: I 1.8 | D 2.32 | H 1.92 | Y 1.72 | P 2.07 | L 1.89 | R 2
N16: W 2 | V 1.55 | F 1.63 | D 1.58 | M 1.88 | H 1.66 | A 1.75 | C 1.89
P11: A 2.39 | T 1.86 | E 1.45 | F 3.53 | Y 3.97 | Q 1.85 | S 1.36
V12: S 2.35 | H 2.39 | Y 1.97 | C 2.35 | G 1.96 | Q 2.4
E20: I 2.19 | Y 1.77 | S 1.73 | F 1.93 | L 1.67 | R 1.65
M5: F 1.52 | L 1.97 | N 2.44 | G 2.43 | P 2.1 | R 2.2 | A 2.21
K18: V 1.65 | C 1.71 | R 1.6 | T 1.85
S4: Q 2.59 | E 2.57 | M 1.81 | R 1.48 | L 1.2 | P 2.98 | N 2.26
H21: V 1.94 | L 2.23 | W 1.81 | D 2.06 | C 2.02 | R 1.72 | F 1.66 | S 2.07
T24: P 2.14 | K 2.19 | D 2.16 | L 1.67 | G 2.14 | W 2.06 | N 1.97 | Q 1.92
L13: S 2.14 | G 1.93 | F 2.04
V22: K 2.61 | A 2.22 | R 1.99 | C 2 | I 2.11 | D 2.89 | T 2.38
Q2: H 1.63 | R 1.47 | P 1.93 | K 1.91 | A 2.47 | G 2.66 | Y 2.08
P23: Y 1.84 | D 2.29 | A 1.82 | C 1.96 | G 2.15 | F 1.79 | Q 1.69 | R 2.05 | T 2.27 | K 2 | N 1.86 | E 2.19 | S 1.88
K19: Y 1.99 | M 1.59 | W 1.65 | I 1.59 | G 1.95 | Q 1.84 | F 1.98 | C 1.7
F9: G 3.17 | D 3.99 | C 2.15 | P 3.22 | L 2.44 | K 3.41
P15: R 1.92 | K 1.52 | G 1.49 | L 2.43 | F 2.2 | E 2.14 | Y 2.04 | I 2.17 | C 1.7
R8: H 2.41 | F 1.61 | L 2.22 | Q 3.08 | G 1.9 | N 2.8 | E 3.28 | K 2.61
N6: K 1.6 | Q 1.81 | D 1.89 | Y 2.14
I10: N 2.9 | M 2.23 | R 2.75 | E 3.16 | V 1.31 | Q 1.98 | P 3.42 | W 1.97
F7: K 3.06 | S 3.12 | C 2.38 | D 2.91 | T 2.73 | Y 2.59 | Q 3.19 | L 1.91
G3: I 1.77 | F 3.01 | C 2.06 | T 2.44 | Y 1.33 | E 2.09 | P 1.74
